Read-outs that look alike come from different tables or passages of the source. Where no end group is shown, it is not given here.

The source of these data is publication PMC12489471, “A multi-dentate, cooperative interaction between endo- and exo-ribonucleases within the bacterial RNA degradosome” (Nucleic Acids Research, 2025).

One assay has as its target T1, PNPase (Escherichia coli, UniProt P05055).
T1 construct: made in house; host or cells: E. coli Evo21(DE3)
The class given is binding, E. coli. The conditions noted are these: SPR, 25°C, immobilized PNPase C-His, HEPES pH 7.2, contact 60 s. The source says:
Briefly, at the N-terminal of the construct, there is an Hisx6 affinity tag that will be used for affinity purification. Following the Hisx6 tag there is an maltose-binding protein (MBP) tag with a TEV cleavage site to maintain solubility of the peptides. Following the MBP tag the gene encoding the peptide is inserted, and is then followed by intein, a self-cleavable tag, followed by a choline-binding domain, which can be used for an extra step of affinity purification. […] After expression, cells were harvested, resuspended in Lysis Buffer 2 (20 mM Tris–HCl, pH 8.0, 80 mM KCl, 300 mM NaCl, 20 mM Imidazole, 0.5 mM TCEP), and lysed with a cell disruptor (Emulsiflex, Avestin). […] After subsequent rounds of washing with Ni Equilibration Buffer supplemented with, respectively, 0.1% Triton-X, 1 M NaCl, and a final wash in Ni Equilibration Buffer, samples were eluted with Ni Elution Buffer (20 mM Tris–HCl, pH 8.0, 300 mM NaCl, 300 mM imidazole, 0.5 mM TCEP). Enriched fractions were then supplemented with 100 mM β-mercaptoethanol to catalyse intein self-cleavage overnight at room temperature. Treated samples were filtered and loaded on an amylose gravity flow column, equilibrated with Amy Equilibration Buffer (20 mM Tris–HCl, pH 8.0, 20 mM NaCl, 20 mM imidazole, 2 mM β-mercaptoethanol) and after washing, His-tagged TEV protease was applied to the resin and incubated at 4°C for 2 h.
PNPase carrying a C-terminal Hisx6 tag was expressed from pExp-cis-Ec_PNP-CHis vector in E. coli Evo21(DE3) cells, induced with 0.4 mM IPTG, at 18°C overnight. After expression, cells were harvested and resuspended in Lysis Buffer 2 (20 mM Tris–HCl, pH 8.0, 80 mM KCl, 300 mM NaCl, 20 mM imidazole, 0.5 mM TCEP), and lysed with a cell disruptor (Emulsiflex, Avestin). […] After subsequent rounds of washing with equilibration buffer supplemented with 0.1% Triton-X, or 1 M NaCl, the sample was eluted with Ni PNPCHis Elution Buffer (20 mM NaH2PO4, pH 8.0, 300 mM NaCl, 300 mM KCl, 5 mM MgCl2, 300 mM imidazole, pH 7.5, 10 mM β-mercaptoethanol). […] Fractions containing PNPase were run through a HiPrep™ 26/10 Desalting Column (GE Healthcare) and buffer exchanged to Q PNPCHis A (20 mM NaH2PO4, pH 8.0, 30 mM NaCl, 10% glycerol, 0.5 mM TCEP).
Interaction measurements were made using a Biacore T200 instrument (GE) at 25°C. PNPase with a 6xHisTag at the CTD was immobilized on a Series S Sensor Chip NTA (Cytiva) to provide a signal of 5 response units (RU). […] For the SPR analysis of the point mutants, binding to PNPase was measured at four different concentrations (0, 12.5, 25, and 50 nM). All concentrations were run in duplicates. The contact time was 60 s, while the dissociation time was 120 s, at a […] flow rate. […] The chip surface was regenerated with 350 mM EDTA in water, following manufacturer's instructions. Data were processed using the manufacturer’s BIAevaluation software.

For assay [1], the target named is S. enterica PNPase core (Salmonella enterica serovar Typhimurium) (UniProt Q8ZLT3). As to the kind of experiment: cryo-EM structure; purified PNPase core and RNase E-muGFP-CHis mixed 1:2, complex separated on Superdex 200 Increase in 20 mM Tris–HCl pH 8.0, 25 mM MgCl2, 150 mM KCl, 1 mM TCEP; 8 mM CHAPSO; E. coli and S. enterica proteins.
The target in assay [2] is T2, PNPase carrying a C-terminal Hisx6 tag (E. coli polynucleotide phosphorylase) (E. coli, UniProt P05055 1-711).
T2 construct: Held on the NTA chip by its His tag in the SPR; also called PNPase C-His; PNPCHis; source: E. coli Evo21(DE3), purified (Ni-NTA, butyl-Sepharose, Q, SEC); not shown: His6, C-terminal, kept
T2 sequence (looked up): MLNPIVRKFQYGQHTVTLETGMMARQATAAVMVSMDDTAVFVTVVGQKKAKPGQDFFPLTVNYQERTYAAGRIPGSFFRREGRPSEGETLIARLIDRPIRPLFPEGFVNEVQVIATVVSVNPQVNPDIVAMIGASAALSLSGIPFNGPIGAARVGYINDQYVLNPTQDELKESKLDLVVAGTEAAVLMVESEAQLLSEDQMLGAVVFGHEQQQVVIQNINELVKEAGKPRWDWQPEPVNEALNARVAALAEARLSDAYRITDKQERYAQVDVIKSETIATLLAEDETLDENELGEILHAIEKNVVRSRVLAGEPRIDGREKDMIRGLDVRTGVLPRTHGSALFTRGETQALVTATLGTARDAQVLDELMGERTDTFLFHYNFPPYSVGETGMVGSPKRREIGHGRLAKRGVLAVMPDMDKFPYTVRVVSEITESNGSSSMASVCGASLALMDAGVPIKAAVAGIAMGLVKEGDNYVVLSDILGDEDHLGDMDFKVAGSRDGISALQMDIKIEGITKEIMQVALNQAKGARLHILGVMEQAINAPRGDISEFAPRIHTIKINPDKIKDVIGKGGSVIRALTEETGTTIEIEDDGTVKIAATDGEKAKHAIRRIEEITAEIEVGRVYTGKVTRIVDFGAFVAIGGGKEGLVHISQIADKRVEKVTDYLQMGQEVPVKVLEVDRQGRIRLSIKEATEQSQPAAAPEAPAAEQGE
The experiment in a line: SPR. As to conditions: both partners purified.

For assay [3], the target named is T3, PNPase carrying a C-terminal Hisx6 tag (E. coli polynucleotide phosphorylase) (E. coli, UniProt P05055 1-711).
T3 construct: polynucleotide phosphorylase (PNPase), E. coli; Immobilised through the His tag on an NTA chip for SPR; also called PNPase C-His; PNPase with a 6xHisTag at the CTD; source: E. coli Evo21(DE3), purified (Ni-NTA, butyl-Sepharose HIC, Q, Superdex S200); not shown: His6, C-terminal, kept
T3 sequence (looked up): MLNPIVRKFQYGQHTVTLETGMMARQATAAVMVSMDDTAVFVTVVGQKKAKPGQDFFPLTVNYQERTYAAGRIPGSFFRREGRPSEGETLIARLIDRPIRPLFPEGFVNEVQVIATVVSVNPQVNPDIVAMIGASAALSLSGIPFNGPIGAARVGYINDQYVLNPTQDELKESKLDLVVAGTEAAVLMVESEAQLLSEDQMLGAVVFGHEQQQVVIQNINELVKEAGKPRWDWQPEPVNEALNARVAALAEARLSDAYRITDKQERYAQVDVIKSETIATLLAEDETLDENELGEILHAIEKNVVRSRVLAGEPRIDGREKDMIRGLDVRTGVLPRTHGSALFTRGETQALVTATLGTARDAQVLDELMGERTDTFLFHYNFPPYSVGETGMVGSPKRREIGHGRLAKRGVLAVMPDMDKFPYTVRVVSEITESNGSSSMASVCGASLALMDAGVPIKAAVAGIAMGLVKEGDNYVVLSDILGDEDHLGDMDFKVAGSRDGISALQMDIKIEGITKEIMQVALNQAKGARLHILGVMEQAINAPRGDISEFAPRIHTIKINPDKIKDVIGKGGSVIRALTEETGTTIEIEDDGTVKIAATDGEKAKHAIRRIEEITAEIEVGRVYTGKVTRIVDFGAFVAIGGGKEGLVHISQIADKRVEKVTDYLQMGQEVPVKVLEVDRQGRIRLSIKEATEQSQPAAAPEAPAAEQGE
The experiment in a line: SPR; PNPase with C-terminal His6 tag immobilised on Series S Sensor Chip NTA (5 RU); Biacore T200, 25°C; 20 mM HEPES pH 7.2, 150 mM NaCl, 5 mM MgCl2, 0.5 mM TCEP, 0.05% Tween 20; six peptide concentrations up to 9000 nM (up to 5000 nM for RNase E 985–1061); contact 60 s, dissociation 120 s. As to conditions: both partners purified.

Assay [4] deals with T3, PNPase carrying a C-terminal Hisx6 tag …. The description is as above. As to conditions: both partners purified. The source holds these as a separate data set.
The next assay deals with PNPase core. As to the kind of experiment: Cryo-EM of E. coli PNPase core:RNase E complex. The class given is binding. The conditions noted are these: 20 mM Tris–HCl pH 8.0, 25 mM MgCl2, 150 mM KCl, 1 mM TCEP. As for the experimental part: The PNPase core encoding sequence from E. coli (aa 1–552), Salmonella enterica serovar Typhimurium (UniProt: Q8ZLT3) (aa 1–552), or Pseudomonas aeruginosa (strain PAO1, UniProt: Q9HV59) (aa 1–553) was amplified using corresponding genomic DNA as a template and cloned into pExp-Mxe-CHis expression vector. The protein of interest, produced as a fusion with C-terminal 8×His-tagged Mycobacterium xenopi GyrA intein, was expressed in Evo21(DE3) cells at 18°C overnight following induction with 0.4 mM IPTG. […] After cleavage, the protein buffer was exchanged using HiPrep 26/10 desalting column (Cytiva), and the protein solution was reapplied to Ni-NTA resin to remove His-tagged intein and uncleaved material. […]
Purified PNPase core and RNE-muGFP-CHis proteins were mixed in 1:2 ratio and their complex were separated on the Superdex 200 Increase 10/300 GL column (Cytiva) equilibrated with cryo-EM Buffer (20 mM Tris–HCl, pH 8.0, 25 mM MgCl2, 150 mM KCl, 1 mM TCEP). […] The samples were mixed with CHAPSO (3-([3-cholamidopropyl]dimethylammonio)-2-hydroxy-1-propanesulfonate) at a final concentration of 8 mM before being applied onto R2/2 Au Ultrafoil grids (Quantifoil) that had been pre-treated by glow-discharge (PELCO easiGLOW: 60 s, 25 mA, 0.39 mBar). […]

As for “GAAGGHTATHHASAAPARPQPVE [RNase E 1039-1061]”, the “KD range in words” value is “micromolar range” on PNPase (listed as RNase E peptide 1039–1061) and “low μM range” on PNPase (listed as residues 1039–1061).
In assay [1], “S. enterica RNase E 921–1067-muGFP (domain or fragment)” displayed a stoichiometry N (RNase E peptide per PNPase trimer) of 1.

B1: RNase E 960 – 1061 R1056A (domain or fragment, E. coli, UniProt P21513 960-1061, looked up)
chain: VVETAEVVVAEPEVVAQPAAPVVAEVAAEVETVAAVEPEVTVEHNHATAPMTRAPAPEYVPEAPRHSDWQRPTFAFEGKGAAGGHTATHHASAAPAAPQPVE
notes: source: E. coli Evo21(DE3), purified (Ni-NTA, amylose, TEV cleavage, Q, SEC); not shown: His6, N-terminal, cleaved; MBP, N-terminal, cleaved; intein, C-terminal, cleaved
Regarding B1, in assay [2], the kon came out at 150000 M⁻¹ s⁻¹.

B2: RNase E 985-1053 (domain or fragment, E. coli, UniProt P21513 985-1053, looked up)
chain: VAAEVETVAAVEPEVTVEHNHATAPMTRAPAPEYVPEAPRHSDWQRPTFAFEGKGAAGGHTATHHASAA
notes: the SPR methods name a peptide 960–1053; Lacks the terminal Pro-rich motif; Limits differ between results (985–1053) and methods (960–1053); also called RNase E peptide 985–1053; RNase E 960–1053 (methods); source: E. coli Evo21(DE3), pMxe vector, purified (Ni-NTA, amylose, TEV, Q, Superdex 75); not shown: His6, N-terminal, cleaved; MBP, N-terminal, cleaved; intein, C-terminal, cleaved
B2: in assay [3], binding was characterised by a dissociation constant (Kd) of 11.5 µM, the koff amounted to 0.339 s⁻¹ and the kon was determined as 29400 M⁻¹ s⁻¹. In assay [4], binding was put at a Kd of 100 µM.

B3: RNase E 921–1061-muGFP (protein, UniProt P21513 921-1061, looked up, fragment)
chain: AVTEQPQVITESDVAVAQEVAEQAEPVVEPQEETADIEEVVETAEVVVAEPEVVAQPAAPVVAEVAAEVETVAAVEPEVTVEHNHATAPMTRAPAPEYVPEAPRHSDWQRPTFAFEGKGAAGGHTATHHASAAPARPQPVE
modifications: muGFP fusion
With B3, the “binding mode / stoichiometry with E. coli PNPase core” value with PNPase core is listed as “only one RNase E peptide engages with a PNPase trimer, interacting with two protomers”.
